# In patent publication US20180362652A1 (Biogen, published 2018):
# Positions count from the first letter of the chain named. Names may count otherwise.
# T1: cynomolgus monkey BDCA2 (full-length, cell surface, E73 SNP form) (cynomolgus monkey, UniProt Q8WTT0 1-213 (human entry))
# T1 construct: also called cyno BDCA2; surface cynomolgus monkey BDCA2
# T1 chain: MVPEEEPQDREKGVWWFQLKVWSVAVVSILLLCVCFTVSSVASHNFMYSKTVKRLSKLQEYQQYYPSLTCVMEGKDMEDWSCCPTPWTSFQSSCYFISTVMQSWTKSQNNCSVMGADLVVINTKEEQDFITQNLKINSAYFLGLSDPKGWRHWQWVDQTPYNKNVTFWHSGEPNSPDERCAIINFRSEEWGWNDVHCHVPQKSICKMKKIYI
# T2: human BDCA2 (full-length, cell surface) (human, UniProt Q8WTT0 1-213)
# T2 construct: also called huBDCA2; surface human BDCA2
# T2 sequence: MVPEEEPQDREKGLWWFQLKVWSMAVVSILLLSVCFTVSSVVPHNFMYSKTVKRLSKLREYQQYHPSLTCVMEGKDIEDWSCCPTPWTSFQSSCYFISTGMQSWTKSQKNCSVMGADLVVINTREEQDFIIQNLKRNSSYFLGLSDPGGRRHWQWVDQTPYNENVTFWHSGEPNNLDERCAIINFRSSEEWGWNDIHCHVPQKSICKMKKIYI
# T3: monomeric huBDCA2 ectodomain (human, UniProt Q8WTT0 45-213)
# T3 construct: Prepared by proteolytic cleavage of the purified muIgG2a Fc-huBDCA2 fusion protein (pEAG2423); also called human BDCA2 ectodomain; human BDCA2 ECD
# T3 sequence: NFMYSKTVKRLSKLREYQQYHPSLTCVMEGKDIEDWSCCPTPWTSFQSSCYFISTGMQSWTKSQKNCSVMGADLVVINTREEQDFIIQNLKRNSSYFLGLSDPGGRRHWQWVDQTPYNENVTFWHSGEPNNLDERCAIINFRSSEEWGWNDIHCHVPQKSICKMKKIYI
# B1: hu24F4 H2/L1 (antibody, V domains shown)
# VH: EVQLVESGGGLVKPGGSLRLSCAASGFTFSTYTMSWVRQAPGKGLEWVSTISPGDSSTIYYADSVKGRFTISRDNAKNSLYLQMNSLRAEDTAVYYCARDIYYNYGAWFAYWGQGTLVTVSS
# VL: DIQLTQSPSSLSASVGDRVTITCKASQSVDYDGDSYMNWYQQKPGKAPKLLIYAASTLESGVPSRFSGSGSGTDFTLTISSLQPEDFATYYCQQSNEDPRTFGQGTKVEIK
# notes: Humanized variant, human IgG1/kappa, conditioned medium of 293E cells; also called H2 series of hu24F4
# B2: hu24F4 H0/L1 (antibody, V domains shown)
# VH: EVQLVESGGGLVKPGGSLRLSCAASGFTFSTYTMSWVRQAPGKGLEWVSAISGSGGSTYYADSVKGRFTISRDNAKNSLYLQMNSLRAEDTAVYYCARDIYYNYGAWFAYWGQGTLVTVSS
# VL: B1 VL
# notes: Humanized variant, human IgG1/kappa, conditioned medium of 293E cells; also called H0 series of hu24F4
# B3: hu24F4 H5/L1 (antibody, V domains shown)
# VH: DVQLVQSGGGLVKPGGSLRLSCAASGFTFSTYTMSWVRQAPGKGLEWVATISPGDSFGYYYPDSVQGRFTISRDNAKNSLYLQMNRLRAEDTAVYYCTRDIYYNYGAWFAYWGRGTLVTVSS
# VL: B1 VL
# notes: Humanized variant, human IgG1/kappa, conditioned medium of 293E cells; also called H5 series of hu24F4
# B4: hu24F4 H2/L2 (antibody, V domains shown)
# VH: B1 VH
# VL: B1 VL with A13V, V19A, T22S, L82V
# notes: as for B1
# B5: hu24F4 H4/L2 (antibody, V domains shown)
# VH: B3 VH with Q6E, R86S, R114Q
# VL: B1 VL with A13V, V19A, T22S, L82V
# notes: Humanized variant, human IgG1/kappa, conditioned medium of 293E cells; also called H4 series of hu24F4
# B6: hu24F4 H6/L2 (antibody, V domains shown)
# VH: B3 VH with Q6E, P53G, D55N, S56N, F57Y, Y60S, Q66K, R86S, R114Q
# VL: B1 VL with A13V, V19A, T22S, L82V
# notes: Humanized variant, human IgG1/kappa, conditioned medium of 293E cells; also called H6 series of hu24F4
# B7: hu24F4 H5/L2 (antibody, V domains shown)
# VH: B3 VH
# VL: B1 VL with A13V, V19A, T22S, L82V
# notes: as for B3
# B8: hu24F4 H1/L1 (antibody, V domains shown)
# VH: B2 VH with A50T, G53P, S54G, G55D, G56S, S57F, T58G, A61P
# VL: B1 VL
# notes: Humanized variant, human IgG1/kappa, conditioned medium of 293E cells; also called H1 series of hu24F4
# B9: hu24F4 H3/L2 (antibody, V domains shown)
# VH: B1 VH with S57F, T58G, I59Y, A62P, K66Q
# VL: B1 VL with A13V, V19A, T22S, L82V
# notes: Humanized variant, human IgG1/kappa, conditioned medium of 293E cells; also called H3 series of hu24F4
# B10: hu24F4 H0/L2 (antibody, V domains shown)
# VH: B2 VH
# VL: B1 VL with A13V, V19A, T22S, L82V
# notes: as for B2
# B11: hu24F4 H1/L2 (antibody, V domains shown)
# VH: B2 VH with A50T, G53P, S54G, G55D, G56S, S57F, T58G, A61P
# VL: B1 VL with A13V, V19A, T22S, L82V
# notes: as for B8
# B12: hu24F4 H6/L1 (antibody, V domains shown)
# VH: B3 VH with Q6E, P53G, D55N, S56N, F57Y, Y60S, Q66K, R86S, R114Q
# VL: B1 VL
# notes: as for B6
# B13: hu24F4 H6/L0 (antibody, V domains shown)
# VH: B3 VH with Q6E, P53G, D55N, S56N, F57Y, Y60S, Q66K, R86S, R114Q
# VL: B1 VL with D1A
# notes: as for B6
# B14: ch24F4 C95S variant (antibody, human IgG1, kappa, V domains shown)
# VH: DVKLVESGGGLVKPGGSLKLSCAASGFTFSTYTMSWVRQTPEKRLEWVATISPGDSFGYYYPDSVQGRFTISRDNAKNTLFLQMSSLKSEDTAMYYCTRDIYYNYGAWFAYWGQGTLVTVSA
# VL: DIVLTQSPASLAVSLGQRATISCKASQSVDYDGDSYMNWYQQKPGQPPKLLIYAASTLESGVPARFSGSGSGTDFTLNIHPVEEEDAATYYCQQSNEDPRTFGGGTKLEIKR
# notes: pYL672 with pEAG2678; conditioned medium of 293E cells
# B15: ch24F4 C95T variant (antibody, human IgG1, kappa, V domains shown)
# VH: B14 VH
# VL: B14 VL with S95T
# notes: pYL672 with pEAG2679; conditioned medium of 293E cells
# What was measured:
# [1] = target: T1, cynomolgus monkey BDCA2 (full-length, …); assay: direct binding FACS, conditioned medium on CHO cells co-expressing cynomolgus BDCA2 and FcεRIγ
# Procedure: (§1) Conditioned medium was assayed by direct binding FACS on stably transfected DG44 CHO cells co-expressing full-length BDCA2 and FcεRIγ cDNAs (human or cynomolgus monkey), (relevant expression vectors are human BDCA2/FcεRIγ: pEAG2456, cyno BDCA2/FcεRIγ: pEAG2668).
# [2] = target: T2, human BDCA2 (full-length, cell surface); assay: direct binding FACS, conditioned medium on CHO cells co-expressing human BDCA2 and FcεRIγ; column C (midpoint) of the printed 4-P fit, X in ng/ml; A 6.16, B 0.839, D 115, R^2 0.998
# Procedure: as §1
# [3] = target: T1, cynomolgus monkey BDCA2 (full-length, …); assay: direct binding FACS, conditioned medium on CHO cells co-expressing cynomolgus BDCA2 and FcεRIγ; column C (midpoint) of the printed 4-P fit, X in ng/ml; A 4.01, B 1.09, D 68.9, R^2 0.998
# Procedure: as §1
# [4] = target: T2, human BDCA2 (full-length, cell surface); assay: direct binding FACS, conditioned medium on CHO cells co-expressing BDCA2 and FcεRIγ
# Procedure: as §1
# [5] = target: T1, cynomolgus monkey BDCA2 (full-length, …); assay: as above
# Procedure: as §1
# [6] = target: T3, monomeric huBDCA2 ectodomain; assay: Octet, mAb from conditioned medium on anti-human Fc tips, monomeric huBDCA2 in solution
# Procedure: Backmutation to the unpaired cysteine, i.e., S95C, was constructed by site-directed mutagenesis producing plasmid pYL749. Variants S95T, S95A, and S95V were constructed by site-directed mutagenesis producing plasmids pYL750, pYL751, and pYL752, respectively. The full-length light chain cDNA sequences in the resultant plasmids were confirmed by DNA sequencing. […] Conditioned medium was harvested at 2 days post-transfection. […] Conditioned medium containing the C95 variant mAbs was assayed by Octet for binding to human BDCA2 ectodomain. Antibodies from conditioned medium from transiently transfected cells were bound to anti-human Fc tips, then monomeric huBDCA2 was flowed over the Octet tips, to examine binding and dissociation.
# [7] = target: T1, cynomolgus monkey BDCA2 (full-length, …); assay: direct binding FACS, conditioned medium on CHO cells co-expressing cynomolgus BDCA2 and FcεRIγ; column C (midpoint) of the printed 4-P fit, X in ng/ml; A 2.43, B 0.789, D 70.7, R^2 0.999
# Procedure: as §1
# [8] = target: T2, human BDCA2 (full-length, cell surface); assay: direct binding FACS, conditioned medium on CHO cells co-expressing human BDCA2 and FcεRIγ; column C (midpoint) of the printed 4-P fit, X in ng/ml; A 5.67, B 0.857, D 96.6, R^2 0.999
# Procedure: as §1
# [9] = target: T3, monomeric huBDCA2 ectodomain; assay: Octet, mAb from conditioned medium on anti-human Fc tips, monomeric huBDCA2 in solution; remark: listed apart in the source
# Procedure: The monomeric huBDCA2 ectodomain was prepared by proteolytic cleavage from the purified muIgG2a Fc-huBDCA2 fusion protein (relevant plasmid: pEAG2423). Antibodies from conditioned medium from transiently transfected cells were bound to anti-human Fc tips, and then monomeric huBDCA2 was flowed over the Octet tips, to examine binding and dissociation.
# [10] = target: T3, monomeric huBDCA2 ectodomain; assay: Octet, mAb on anti-human Fc tips, monomeric huBDCA2 in solution
# Procedure: Site-directed mutagenesis was performed using Agilent's QuikChange II mutagenesis kit following the manufacturer's recommended protocol. […] Mutated plasmids were identified by screening for the introduced restriction site changes. The full-length light chain cDNA sequences in the resultant plasmids were confirmed by DNA sequencing. […] Conditioned medium was harvested at 2 days post-transfection. […] Antibodies from conditioned medium from transiently transfected cells were bound to anti-human Fc tips, then monomeric huBDCA2 was flowed over the Octet tips, to examine binding and dissociation.
# [11] = target: T2, human BDCA2 (full-length, cell surface); assay: direct binding FACS on surface BDCA2, conditioned medium
binder,measurement,setting,value
B1,binding result,[1],no binding (tested: about 7000 ng/ml)
B2,binding result,[1],no binding (tested: about 6000 ng/ml)
B3,EC50,[2],0.309 µg/mL
same,EC50,[3],0.228 µg/mL
B4,binding result,[4],no binding
same,binding result,[5],no binding
B5,binding result,[6],binds
same,binding result,[4],binds
same,binding result,[5],binds
B6,binding result,[4],binds
same,binding result,[5],binds
B7,binding result,[6],binds
same,binding result,[4],binds
same,binding result,[5],binds
B8,binding result,[1],no binding (tested: about 5000 ng/ml)
B9,binding result,[4],binds
same,binding result,[5],binds
B10,binding result,[4],no binding
same,binding result,[5],no binding
B11,binding result,[4],no binding
same,binding result,[5],no binding
B12,EC50,[7],0.501 µg/mL
same,EC50,[8],0.359 µg/mL
B13,Kd,[9],5 nM
same,koff,[9],0.00137 s⁻¹
same,kon,[9],273000 M⁻¹ s⁻¹
B14,binding result,[10],binds
same,binding result,[11],binds
B15,binding result,[10],binds
same,binding result,[11],binds
